Reference: the RNAGym collection of RNA variant scans (doi:10.7554/elife.80360)

B1: Hairpin Ribozyme (parent)
chain: GUCCUCUUUCACGUGCGCGUGAAAGAGAGAAGUGAACCAGAGAAACACACGUUGUGGUAUAUUACCUGGUA

Variants of: B1
Experiment: self-cleavage, relative activity (ratio to wild type); higher = more cleavage; co-transcriptional

Variant	self-cleavage
GUCCUCUAUCACGUGCGCGUGAAAGAGAGAAGUGAACCAGAGAAACACACGUUGUGGUAUAUGACCUGGUA [U8A U63G]	0.117
GUCCUCUAUCACGUGCGCGUGAAAGAGAGAAGUGAACCAAAGAAACACACGUUGUGGUAUAUUACCUGGUA [U8A G40A]	0.235
GUCCUCUAUCACGUGCGCGUGAAAGAGAGAAGUGAACCAGAGAAACACACGUGGUGGUAUAUUACCUGGUA [U8A U53G]	0.59
GUCCUCUAUCACGUGCGCGUGAAAGAGAGAAGUGAACCAGAGAAACACACGUAGUGGUAUAUUACCUGGUA [U8A U53A]	0.763
GUCCUCUCUCACGUGCGCGUGAAAGAGAGAAGUGAACCACAGAAACACACGUUGUGGUAUAUUACCUGGUA [U8C G40C]	0.0998
GUCCUCUAUCACGUGCGCGUGAAAGAGAGAAGUGAACCAGAGAAACACACGUUUUGGUAUAUUACCUGGUA [U8A G54U]	0.524
GUCCUCUCUCACCUGCGCGUGAAAGAGAGAAGUGAACCAGAGAAACACACGUUGUGGUAUAUUACCUGGUA [U8C G13C]	0.834
GUCCUCUAUCACGUGCGCGUGAAAGAGAGAAGUGAACCAGAGAAACACACGUUGUGGUAUAUUACCUCGUA [U8A G68C]	0.215
GUCCUCUCUCACGUGCGCGUGAAAGAGAGAAGUGAACCAGAGAAACACACGUUGUGCUAUAUUACCUGGUA [U8C G57C]	0.172
GUCCUCUCUCACGUGCGCGUGAAAGAGAGAAGUGAACCAGAGAAACACACGUUGUAGUAUAUUACCUGGUA [U8C G56A]	0.153
GUCCUCUCUCACGUGCGCGUGAAUGAGAGAAGUGAACCAGAGAAACACACGUUGUGGUAUAUUACCUGGUA [U8C A24U]	0.369
GUCCUCUAUCACGUGCUCGUGAAAGAGAGAAGUGAACCAGAGAAACACACGUUGUGGUAUAUUACCUGGUA [U8A G17U]	0.79
GUCCUCUCUCAUGUGCGCGUGAAAGAGAGAAGUGAACCAGAGAAACACACGUUGUGGUAUAUUACCUGGUA [U8C C12U]	0.566
GUCCUCUCUCAAGUGCGCGUGAAAGAGAGAAGUGAACCAGAGAAACACACGUUGUGGUAUAUUACCUGGUA [U8C C12A]	0.164
GUCCUCUCUCACGUGCGCGUGAGAGAGAGAAGUGAACCAGAGAAACACACGUUGUGGUAUAUUACCUGGUA [U8C A23G]	0.709
GUCCUCUCUCACGUGCGCGUGAAAGGGAGAAGUGAACCAGAGAAACACACGUUGUGGUAUAUUACCUGGUA [U8C A26G]	0.544
GUCCUCUCUCACGUGCGCGUGAAAGCGAGAAGUGAACCAGAGAAACACACGUUGUGGUAUAUUACCUGGUA [U8C A26C]	0.316
GUCCUCUAUCACGUGCGCGUGAAAGAGAAAAGUGAACCAGAGAAACACACGUUGUGGUAUAUUACCUGGUA [U8A G29A]	0.183
GUCCUCUCUCACGUGCGCGUGAAAGAGAGAAGUGAACCAGAGAAUCACACGUUGUGGUAUAUUACCUGGUA [U8C A45U]	0.257
GUCCUCUCUCACGUGCGCGUGAAAGAGAGAAGUGAACCAGAGAACCACACGUUGUGGUAUAUUACCUGGUA [U8C A45C]	0.065
GUCCUCUCUCACGUGCGCGUGAAAGAGAGAAGUGUACCAGAGAAACACACGUUGUGGUAUAUUACCUGGUA [U8C A35U]	0.679
GUCCUCUCUCACGUGCGCGUGAAAGAGAGAAGUGCACCAGAGAAACACACGUUGUGGUAUAUUACCUGGUA [U8C A35C]	0.876
GUCCUCUAUCACGUGCGCGUGAAAGAGAGAAGUGAACCAGAGAAACACAGGUUGUGGUAUAUUACCUGGUA [U8A C50G]	0.21
GUCCUCUAUCACGUGCGCGGGAAAGAGAGAAGUGAACCAGAGAAACACACGUUGUGGUAUAUUACCUGGUA [U8A U20G]	0.711
GUCCUCUCUCACGUGCGCGUGAAAGAGAGAAGUGAACCAGAGAAACGCACGUUGUGGUAUAUUACCUGGUA [U8C A47G]	0.147
GUCCUCUCUCACGUGCGCGUGAAAGAGAGAAGUGAAACAGAGAAACACACGUUGUGGUAUAUUACCUGGUA [U8C C37A]	0.214

Variant	self-cleavage
GUCCUCUAUCAGGUGCGCGUGAAAGAGAGAAGUGAACCAGAGAAACACACGUUGUGGUAUAUUACCUGGUA [U8A C12G]	0.552
GUCCUCUAUCACGUGCGCGUGAAAGAUAGAAGUGAACCAGAGAAACACACGUUGUGGUAUAUUACCUGGUA [U8A G27U]	0.208
GUCCUCUAUCACGGGCGCGUGAAAGAGAGAAGUGAACCAGAGAAACACACGUUGUGGUAUAUUACCUGGUA [U8A U14G]	0.401
GUCCUCUAUCACGAGCGCGUGAAAGAGAGAAGUGAACCAGAGAAACACACGUUGUGGUAUAUUACCUGGUA [U8A U14A]	0.642
GUCCUCUCUCACGUGCGCGUGAAAGAGAGAAGUGAUCCAGAGAAACACACGUUGUGGUAUAUUACCUGGUA [U8C A36U]	0.393
GUCCUCUCUCACGUGCGCGUGAAAGAGAGAAGUGACCCAGAGAAACACACGUUGUGGUAUAUUACCUGGUA [U8C A36C]	0.671
GUCCUCUCUCACGUGCGCGUGAAAGAGAGAAGUGAACAAGAGAAACACACGUUGUGGUAUAUUACCUGGUA [U8C C38A]	0.215
GUCCUCUAUUACGUGCGCGUGAAAGAGAGAAGUGAACCAGAGAAACACACGUUGUGGUAUAUUACCUGGUA [U8A C10U]	0.643
GUCCUCUCUCACGUGCGCGUGAAAGAGAGAAGUGAACCAGAGAAAGACACGUUGUGGUAUAUUACCUGGUA [U8C C46G]	0.188
GUCCUCUAUCACGUGCGCGUAAAAGAGAGAAGUGAACCAGAGAAACACACGUUGUGGUAUAUUACCUGGUA [U8A G21A]	0.618
GUCCUCUAUCACGUUCGCGUGAAAGAGAGAAGUGAACCAGAGAAACACACGUUGUGGUAUAUUACCUGGUA [U8A G15U]	0.888
GUCCUCUCUCACGUGCGCGUGAAAGAGAGAAGUGAACCAGAGAAACACACGUUGUGGUAUAUUAUCUGGUA [U8C C65U]	0.166
GUCCUCUCUCACGUGCGCGUGAAAGAGAGAAGUCAACCAGAGAAACACACGUUGUGGUAUAUUACCUGGUA [U8C G34C]	1.16
GUCCUCUAUCACGUGCGCGUGAAAGAGAGAAGUGAACCAGAGAAACACACGUUGUGGUAUAUUACCUGGCA [U8A U70C]	0.816
GUCCUCUAUCACGUGCGCGUGAAAGAGAGAAGUGAACCAGAGAAACACACGUUGUGGUAUAUUACCUGGGA [U8A U70G]	0.585
GUCCUCUAUCACGUGCGCGUGAAAGAGAGAAGUGAACCAGAGAAACACACGUUGUGGUAUAUUACGUGGUA [U8A C66G]	0.101
GUCCUCUAUCACGUGCGCGUGAAAGAGAGAAGUGAACCAGAGAAACACACGUUGUGGUAUAUUACUUGGUA [U8A C66U]	0.238
GUCCUCUAUCACGUGCGCGUGAAAGAGAGAAGUGAACCAGAGAAACACACGUUGUGGUAUAUUACAUGGUA [U8A C66A]	0.128
GUCCUCUCUCACGUGCGCGUGAAAGAGAGAAUUGAACCAGAGAAACACACGUUGUGGUAUAUUACCUGGUA [U8C G32U]	0.0859
GUCCUCUCUCACGUGCGCGUGAAAGAGAGAAGUGAACCCGAGAAACACACGUUGUGGUAUAUUACCUGGUA [U8C A39C]	0.343
GUCCUCUAUCACGUGCGCGUGAAAGAGAGAAGUGAACCAGAGAAACACACGGUGUGGUAUAUUACCUGGUA [U8A U52G]	0.518
GUCCUCUAUCACGUGCGCGUGAAAGAGAGAAGUGAACCAGAGAAACACACGAUGUGGUAUAUUACCUGGUA [U8A U52A]	0.658
GUCCUCUCUAACGUGCGCGUGAAAGAGAGAAGUGAACCAGAGAAACACACGUUGUGGUAUAUUACCUGGUA [U8C C10A]	0.363
GUCCUCUCUCACGUGCGCGUGAAAGAGAGAAGUGAACCAGACAAACACACGUUGUGGUAUAUUACCUGGUA [U8C G42C]	0.187
GUCCUCUAUCACGUGCGCGUGAAAGAGAGAAGUGAACCAGAGAAACACACGUUGUGGUAUAUUACCCGGUA [U8A U67C]	0.186
GUCCUCUAUCACGUGCGCGUGAAAGAGAGAAGUGAACCAGAGAAACACACGUUGUGGUAUAUUACCAGGUA [U8A U67A]	0.196

Variant	self-cleavage
GUCCUCUCUCACGUGCGCGUGAAAGAGAGAAGUGAACCAGAGAAACAUACGUUGUGGUAUAUUACCUGGUA [U8C C48U]	0.272
GUCCUCUCUCACGUGCGCGUGAAAGAGAGAAGUGAACCAGAGAAACAGACGUUGUGGUAUAUUACCUGGUA [U8C C48G]	0.155
GUCCUCUAUCACGUGCGCGUGAAAGAGAGAAGUGAACCAGAGAAACAUACGUUGUGGUAUAUUACCUGGUA [U8A C48U]	0.117
GUCCUCUAUCACGUGCGCGUGAAAGAGAGAAGUGAACCAGAGAAACAAACGUUGUGGUAUAUUACCUGGUA [U8A C48A]	0.111
GUCCUCUAUCACGUGCGCGUGAAAGAGAGAAGUGAACCAGAGAAACAGACGUUGUGGUAUAUUACCUGGUA [U8A C48G]	0.107
GUCCUCUCUCACGUGCGUGUGAAAGAGAGAAGUGAACCAGAGAAACACACGUUGUGGUAUAUUACCUGGUA [U8C C18U]	0.779
GUCCUCUCUCACGUGCGAGUGAAAGAGAGAAGUGAACCAGAGAAACACACGUUGUGGUAUAUUACCUGGUA [U8C C18A]	0.787
GUCCUCUCUCACGUGCGCGUGAAAGAGUGAAGUGAACCAGAGAAACACACGUUGUGGUAUAUUACCUGGUA [U8C A28U]	0.693
GUCCUCUCUCACGUGCGCGUGAAAGAGCGAAGUGAACCAGAGAAACACACGUUGUGGUAUAUUACCUGGUA [U8C A28C]	0.691
GUCCUCUCUCACGUGCGCGUGAAAGAGAGAAGUGAACCAGAGAAACACCCGUUGUGGUAUAUUACCUGGUA [U8C A49C]	0.216
GUCCUCUAUCACGUGCGCGUGAAAGAGAGAAGUGAACCAGAGAAACACACGUUGUGGUAUAGUACCUGGUA [U8A U62G]	0.123
GUCCUCUCUCACGUGCGCGUGUAAGAGAGAAGUGAACCAGAGAAACACACGUUGUGGUAUAUUACCUGGUA [U8C A22U]	0.344
GUCCUCUCUCACGUGCGCGUGAAAGAUAGAAGUGAACCAGAGAAACACACGUUGUGGUAUAUUACCUGGUA [U8C G27U]	0.158
GUCCUCUAUCACGUGCGCGUGAAAGAGAGAAGUGAACCAGAGAAACACACGUUGCGGUAUAUUACCUGGUA [U8A U55C]	0.322
GUCCUCUAUCACGUGCGCGUGAAAGAGAGAAGUGAACCAGAGAAACACACGUUGAGGUAUAUUACCUGGUA [U8A U55A]	0.184
GUCCUCUAUCACGUGCGCGUGAAAGAGAGAAGUGAACCAGAGAAACACACGUUGGGGUAUAUUACCUGGUA [U8A U55G]	0.268
GUCCUCUAUCACGUGCGCGUGAAAGAGAGAAGCGAACCAGAGAAACACACGUUGUGGUAUAUUACCUGGUA [U8A U33C]	0.137
GUCCUCUCUCACGUGCGCGUGAAAGAGAGAAGUGAACCAGAGAAACACACGUUGUGGUAUAUUACCUGGUU [U8C A71U]	0.569
GUCCUCUCUCACGUGCGCGUGAAAGAGAGAAGUGAACCAGAGAAACACACGUUGUGGUAUAUUACCUGGUC [U8C A71C]	1.11
GUCCUCUCUCACGUGCGCUUGAAAGAGAGAAGUGAACCAGAGAAACACACGUUGUGGUAUAUUACCUGGUA [U8C G19U]	0.582
GUCCUCUCUCGCGUGCGCGUGAAAGAGAGAAGUGAACCAGAGAAACACACGUUGUGGUAUAUUACCUGGUA [U8C A11G]	0.458
GUCCUCUCUCACGUGCGCGUGAAAGAGAGAAGUGAACCAGAGAAACACACGUUUUGGUAUAUUACCUGGUA [U8C G54U]	0.453
GUCCUCUCUCACGUGCGCGUGAAAGAGAGAAGUGAACCAGAGAAACACACGUUAUGGUAUAUUACCUGGUA [U8C G54A]	0.378
GUCCUCUCUCACGUACGCGUGAAAGAGAGAAGUGAACCAGAGAAACACACGUUGUGGUAUAUUACCUGGUA [U8C G15A]	0.743
